Here are results for five molecules from US20050049403A1 (CAMBRIDGE ANTIBODY TECHNOLOGY, published 2005).

Where only a bound is given, the exact number is not on record here.

In assay [1] the target is T1, TGFβ3 (UniProt P10600 301-412).
T1 sequence (looked up): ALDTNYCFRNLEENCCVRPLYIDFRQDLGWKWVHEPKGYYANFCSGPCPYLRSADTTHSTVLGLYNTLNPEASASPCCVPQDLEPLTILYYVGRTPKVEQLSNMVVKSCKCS
Nature of the assay: cell-based or functional assay.

Assay [2] addresses T2, recombinant human TGFβ1 (human, UniProt P01137 279-390). Put plainly: cell-based or functional assay.
In assay [3] the target is T3, recombinant human TGFβ2 (human, UniProt P61812 303-414).
T3 sequence (looked up): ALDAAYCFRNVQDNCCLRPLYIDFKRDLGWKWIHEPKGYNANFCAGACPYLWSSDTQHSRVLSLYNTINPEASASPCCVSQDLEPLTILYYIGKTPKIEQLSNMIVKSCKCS
Nature of the assay: cell-based or functional assay.

Assay [4] concerns the target T3, recombinant human TGFβ2. Nature of the assay: A549 cell radioreceptor assay (nM IgG). The protocol: (§1) Aliqouts of ¹²⁵I-TGFβ1 or TGFβ2 (70-90 TBq/mmol; Amersham International) at 20 pM are preincubated with antibody in binding medium at room temperature for 1 h. Duplicate samples of 0.5 ml of TGFβ/antibody mixtures are then added to the cell monlayers and are incubated at 37° C. for 1-2 h. Control wells contain TGFβ only. Unbound TGFβ is removed by washing 4 times with Hank's balanced salt solution containing 0.1% BSA. Cells are solubilised in 0.8 ml 25 mM Tris HCl pH 7.5, 10% glycerol, 1% Triton X-100 at room temperature for 20 min. The contents of each well are removed and ¹²⁵I measured in a gamma counter.
The ability of 6B1 IgG4 to inhibit binding of TGFβ isoforms to receptors was measured in a radioreceptor assay as described in example 4.

For assay [5], the target named is T1, TGFβ3. Nature of the assay: A549 cell radioreceptor assay (nM IgG).
For assay [6], the target named is T2, recombinant human TGFβ1. Nature of the assay: A549 cell radioreceptor assay (nM IgG).
The target of assay [7] is lysozyme (coated onto a BIACore sensor chip) (Gallus gallus (Chicken), UniProt P00698 19-147). Nature of the assay: BIACore, lysozyme coated on the sensor chip.
Assay [8] addresses T2, recombinant human TGFβ1. Nature of the assay: BIACore, method of Karlsson et al. On the technique in general: In SPR one partner is held on a chip, and binding of the other changes the refractive index at the surface.
In assay [9] the target is T2, recombinant human TGFβ1. Nature of the assay: radioreceptor assay, inhibition of 125I-TGFβ1 binding to A549 cells; concentration of antibody combining sites. The protocol:
(§2) Cells are seeded at 1-2×10^5 cells/ml/well into the wells of 24-well cluster plates and grown for 24 h in serum-free DMEM. Cell monlayers are washed twice with serum-free DMEM and 0.5 ml binding medium (DMEM/Hams F12 (Sigma D-6421) containing 0.1% (v/v) BSA added to each well.
as §1

Assay [10] deals with T3, recombinant human TGFβ2. Nature of the assay: BIACore, antigen on the chip.
Assay [11] concerns the target T2, recombinant human TGFβ1. Put plainly: specificity ELISA, TGFβ coated at 0.2 µg/ml. The protocol:
Clones identified as binding TGFβ-1 rather an uncoated well, as described above, were further analysed for fine specificity. […] Microtitre plate wells were coated with 50 μl of either 0.2 μg/ml TGFβ1, 0.2 μg/ml TGFβ-2, 10 μg/ml bovine serum albumin (BSA) or PBS (the uncoated well). After preblocking both the phage (or soluble scFv) and the microtitre plates, 50 μl blocked phage (or soluble scFv) from each clone was added to a well coated with either TGFβ-1, TGFβ-2, BSA or an uncoated well. As above, alkaline phosphatse activity was visualised using either the chromagenic substrate pNPP (Sigma) or the Ampak system (Dako). […]
Background: ELISA stands for enzyme-linked immunosorbent assay.

Assay [12] concerns the target T3, recombinant human TGFβ2. Nature of the assay: BIACore, method of Karlsson et al.
Assay [13] deals with T3, recombinant human TGFβ2. Put plainly: radioreceptor assay, inhibition of 125I-TGFβ2 binding to A549 cells; concentration of antibody combining sites. The protocol: as §2, §1
Assay [14] has as its target T1, TGFβ3. Nature of the assay: BIACore, antigen coated on the sensor chip.
Assay [15] addresses T2, recombinant human TGFβ1. Put plainly: BIACore, antigen coated on the sensor chip.
The target of assay [16] is T3, recombinant human TGFβ2. Nature of the assay: cell-based or functional assay. The source holds these as a separate data set.
The target of assay [17] is T3, recombinant human TGFβ2. Put plainly: cell-based or functional assay. This is another data set of the same source.
A further assay deals with human insulin (human, UniProt P01308 25-54; P01308 90-110, limits assumed). Put plainly: ELISA, antigen coated at 10 µg/ml, anti-human Fc alkaline phosphatase conjugate, OD405 nm [b]. The protocol: (§3) For both FIG. 13(a) and FIG. 13(b), antigens 1 to 15 were used for coating the plate at a concentration of 10 μg/ml in PBS. The TGFbetas were coated at 0.2 μg/ml in PBS. Coating was performed at 4° C. overnight. […] of each antigen was used per well and duplicates of each antigen for each IgG to be tested. IgG samples were incubated with the coated antigens at 37° C. for 2 hours after blocking with 2%. marvel-PBS. The labelled second antibody was a mouse anti-human Fc1 alkaline phosphatase conjugated and the substrate used to detect bound second antibody was PNPP at 1 mg/ml with the absorbance read at 405 nm.

Another assay has as its target human serum albumin (human, UniProt P02768 25-609). Described as above. The protocol:
as §3

For a further assay, the target named is T4, human lymphotoxin (TNFβ) (human, UniProt P01374 35-205, limits assumed).
T4 sequence (looked up): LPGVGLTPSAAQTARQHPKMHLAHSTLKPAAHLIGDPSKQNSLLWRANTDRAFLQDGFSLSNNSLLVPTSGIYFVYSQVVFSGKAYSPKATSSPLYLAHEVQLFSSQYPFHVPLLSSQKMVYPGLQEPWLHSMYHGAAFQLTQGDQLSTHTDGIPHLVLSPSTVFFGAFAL
The description is as above. The protocol: as §3

A further assay concerns the target T5, bovine serum albumin (bovine, UniProt P02769 25-607).
T5 construct: also called BSA
The description is as above. The protocol: as §3

Assay [18] concerns the target T6, chicken egg white trypsin inhibitor (chicken, UniProt P01005 25-210).
T6 sequence (looked up): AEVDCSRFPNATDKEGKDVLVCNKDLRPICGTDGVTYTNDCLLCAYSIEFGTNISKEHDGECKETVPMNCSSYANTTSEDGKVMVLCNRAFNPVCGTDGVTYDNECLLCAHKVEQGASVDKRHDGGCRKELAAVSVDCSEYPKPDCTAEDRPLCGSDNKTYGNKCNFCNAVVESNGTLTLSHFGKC
The assay is described as above. The protocol:
as §3

Assay [19] has as its target oxazolone-bovine serum albumin (bovine, UniProt P02769 25-607, oxazolone hapten coupled, sites not stated). Described as above. The protocol:
as §3

A further assay has as its target T7, ovalbumin (UniProt P01012 2-386).
T7 sequence (looked up): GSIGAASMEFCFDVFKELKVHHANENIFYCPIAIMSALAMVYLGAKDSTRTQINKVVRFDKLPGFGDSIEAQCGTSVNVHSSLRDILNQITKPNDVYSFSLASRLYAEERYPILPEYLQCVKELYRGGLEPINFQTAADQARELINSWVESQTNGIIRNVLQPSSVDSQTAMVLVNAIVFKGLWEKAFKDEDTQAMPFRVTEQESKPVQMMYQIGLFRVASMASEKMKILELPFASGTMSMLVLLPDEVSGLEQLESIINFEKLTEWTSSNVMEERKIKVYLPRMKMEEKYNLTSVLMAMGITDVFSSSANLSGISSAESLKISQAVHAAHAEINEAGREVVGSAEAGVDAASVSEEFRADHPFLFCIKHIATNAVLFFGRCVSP
The assay is described as above. As to the method: as §3

Another assay addresses hen egg lysozyme (hen, UniProt P00698 19-147). The description is as above. The protocol:
as §3

T2 sequence (P01137 279-390 limits assumed): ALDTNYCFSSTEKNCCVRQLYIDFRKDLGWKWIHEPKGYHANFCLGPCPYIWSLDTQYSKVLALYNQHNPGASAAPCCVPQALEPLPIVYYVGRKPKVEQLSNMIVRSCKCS
Sequence of human serum albumin (P02768 25-609 limits assumed): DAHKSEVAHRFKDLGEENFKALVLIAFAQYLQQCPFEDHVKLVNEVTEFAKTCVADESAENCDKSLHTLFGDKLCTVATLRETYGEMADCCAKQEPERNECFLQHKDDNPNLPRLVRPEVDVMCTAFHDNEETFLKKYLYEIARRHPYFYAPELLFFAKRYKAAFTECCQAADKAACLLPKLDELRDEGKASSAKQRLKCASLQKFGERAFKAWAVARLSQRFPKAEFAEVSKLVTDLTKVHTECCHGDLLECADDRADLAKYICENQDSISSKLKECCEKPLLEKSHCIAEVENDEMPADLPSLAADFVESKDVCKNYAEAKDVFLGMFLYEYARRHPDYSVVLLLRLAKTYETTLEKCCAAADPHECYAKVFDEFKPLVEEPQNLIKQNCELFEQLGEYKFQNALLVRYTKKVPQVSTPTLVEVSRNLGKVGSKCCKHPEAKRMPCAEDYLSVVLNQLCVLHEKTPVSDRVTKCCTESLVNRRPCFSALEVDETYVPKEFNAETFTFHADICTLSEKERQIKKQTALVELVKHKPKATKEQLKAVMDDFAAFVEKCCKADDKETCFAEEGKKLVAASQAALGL
Sequence of hen egg lysozyme (P00698 19-147): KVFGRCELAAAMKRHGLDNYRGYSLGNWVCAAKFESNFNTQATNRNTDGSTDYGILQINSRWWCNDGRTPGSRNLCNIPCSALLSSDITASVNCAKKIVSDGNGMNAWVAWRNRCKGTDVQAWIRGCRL
Sequence of lysozyme (coated onto a BIACore sensor chip) (P00698 19-147 limits assumed): as the sequence (P00698 19-147) above
Sequence of oxazolone-bovine serum albumin (P02769 25-607 limits assumed): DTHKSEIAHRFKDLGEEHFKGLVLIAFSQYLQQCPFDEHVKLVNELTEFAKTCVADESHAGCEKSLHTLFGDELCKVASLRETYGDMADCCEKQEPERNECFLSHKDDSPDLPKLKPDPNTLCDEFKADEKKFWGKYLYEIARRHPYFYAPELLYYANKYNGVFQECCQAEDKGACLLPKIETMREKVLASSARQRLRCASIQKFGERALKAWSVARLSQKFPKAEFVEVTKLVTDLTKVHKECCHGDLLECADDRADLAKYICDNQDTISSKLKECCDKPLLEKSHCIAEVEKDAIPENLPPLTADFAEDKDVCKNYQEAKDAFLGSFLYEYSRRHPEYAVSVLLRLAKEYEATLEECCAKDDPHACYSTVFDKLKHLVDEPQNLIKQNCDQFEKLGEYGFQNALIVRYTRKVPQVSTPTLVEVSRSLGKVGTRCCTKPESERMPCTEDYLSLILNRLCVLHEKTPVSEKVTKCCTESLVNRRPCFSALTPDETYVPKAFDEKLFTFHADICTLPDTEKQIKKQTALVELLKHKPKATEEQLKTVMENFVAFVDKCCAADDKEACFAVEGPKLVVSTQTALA
T5 sequence (P02769 25-607 limits assumed): as above
Sequence of human insulin (P01308 25-54 limits assumed, chain 1 of 2): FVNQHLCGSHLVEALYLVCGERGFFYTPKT
Sequence of human insulin (P01308 90-110 limits assumed, chain 2 of 2): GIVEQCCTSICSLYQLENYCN

A word on the IC50: it is the concentration that inhibits the measured activity by half. Consider “Mouse anti-TGFβ1,2,3 monoclonal antibody from Genzyme”, for which the TF1 cell proliferation assay IC50 (nM IgG) in the assay with TGFβ3 [1] worked out at 0.1 nM; with recombinant human TGFβ1 [2], 1.5 nM; with recombinant human TGFβ2 [3] it was 10 nM. Also, the values for the half-inhibitory concentration (IC50) with recombinant human TGFβ2 [4], with TGFβ3 [5] and with recombinant human TGFβ1 [6] were 0.5 nM, 0.03 nM and 0.55 nM, respectively.

B1: 27C1/10A6 IgG4 (antibody, V domains shown)
VH: QVQLVESGGGVVQPGRSLRLSCAASGLTFSSYDMHWVRQPPAKGLEWVAVISYDGSSKYYADSVKGRFTISRDNSKNTLYLQMNSLRAEDTAVYYCARTGEYSGYDTSGVELWGQGTTVTVSS
VL: HVILTQDPAVSVALGQTVRITCQGDSLKSYYASWYQQKPGQAPVLVIYGENSRPSGIPDRFSGSSSGNTASLTITGAQAEDEADYYCNSRDSSGTHLEVFGGGTKLTVLG
notes: Whole antibody: human gamma 4 constant region (pG4D100) and human lambda constant region (pLN10), made in CHO cells
What is called Kd is the free concentration of one partner at which half of the binding sites on the other are occupied at equilibrium, for simple one-to-one binding. For the molecule B1, in [7], the binding result was “no binding”. Further, the Kd with recombinant human TGFβ1 [8] was around 5 nM. Also, the IC50 with recombinant human TGFβ1 [9] turned out to be 9 nM. Moreover, in the assay with recombinant human TGFβ2 [10], the “fold higher dissociation constant compared to TGFβ1” value was at least 10 fold.

B2: 10A6 scFv (scFv)
scFv: QVQLVESGGGVVQPGRSLRLSCAASGFTFSSYGMHWVRQAPGKGLEWVAVISYDGSNKYYADSVKGRFTISRDNSKNTLYLQMNSLRAEDTAVYYCAKTGEYSGYDSSGVDVWGKGTTVTVSSGGGGSGGGGSGGGGSHVILTQDPAVSVALGQTVRITCQGDSLKSYYASWYQQKPGQAPVLVIYGENSRPSGIPDRFSGSSSGNTASLTITGAQAEDEADYYCNSRDSSGTHLEVFGGGTKLTVLG
notes: Light chain shuffle of 1-B2
On to B2, for which, in the assay with recombinant human TGFβ1 [11], the “ELISA signal, fold over the signal on TGFβ2 and TGFβ3” value is at least 5 fold.

B3: 6H1 IgG4 (antibody, V domains shown)
VH: EVQLVESGGGVVQPGRSLRLSCAASGFTFSSYGMHWVRQAPGKGLEWVAVIWYDGSNKYYADSVKGRFTISRDNSKNTLYLQMDSLRAEDTAVYYCGRTLESSLWGQGTLVTVSS
VL: DVVMTQSPSSLSASVGDRVTITCRASQGISNYLAWYQQKPGKAPKLLIYKASTLESGVPSRFSGSGSGTEFTLTISSLQPEDFATYYCQQSYSTPRTFGQGTKVDIKR
notes: Whole antibody: human gamma 4 and human kappa constant regions (pG4D100, pKN100), CHO cells
B3: in the assay with recombinant human TGFβ2 [12], the Kd is around 2 nM. The 50% inhibitory concentration (IC50) with recombinant human TGFβ2 [13] is around 10 nM. Moreover, the binding result with TGFβ3 [14] and with recombinant human TGFβ1 [15] was “no binding” throughout. In addition, the “IC50 in TF1 cell proliferation assay, 100 pM TGFβ isoform” value in the assay with TGFβ3 [1] is around 20 nM; with recombinant human TGFβ2 [16], 12 nM. For the same molecule, the “IC50 in TF1 neutralisation assay, 6H1 IgG4 from a CHO cell line” value with recombinant human TGFβ2 [16] was found to be 15 nM. Besides, the “I.C.50 in TF1 assay (neutralisation of TGFβ2 inhibition of TF1 cell proliferation)” value with recombinant human TGFβ2 [17] was 100 nM.

B4: 6A5 IgG4 (antibody, V domains shown)
VH: B3 VH
VL: SSELTQDPAVSVALGQTVRITCQGDSLRSYYASWYQQKPGQAPVLVIYGKNNRPSGIPDRFAGSNSGNTASLTITGAQAEDEADYYCSSRDSSGNHVVFGGGTKLTVLG
notes: Whole antibody: human gamma 4 and human lambda constant regions (pG4D100, pLN10), CHO cells
On to B4, for which, in the assay with recombinant human TGFβ2 [13], the IC50 was around 6 nM. Besides, the binding result (in the assay with human insulin; in the assay with human serum albumin; with human lymphotoxin (TNFβ); with bovine serum albumin; in assay [18]; in [19]) was “no binding” throughout. Moreover, the binding result in the assay with ovalbumin and in the assay with hen egg lysozyme was “no binding” each time. Further, in the assay with recombinant human TGFβ2 [17], the “I.C.50 in TF1 assay (neutralisation of TGFβ2 inhibition of TF1 cell proliferation)” value came to 150 nM.
